# Patent publication US20260285989 (published 2026)
# Where a chain is given by its changes, count along the chain named.
# T1: IL-18R1 ECD-His (human)
# T1 chain: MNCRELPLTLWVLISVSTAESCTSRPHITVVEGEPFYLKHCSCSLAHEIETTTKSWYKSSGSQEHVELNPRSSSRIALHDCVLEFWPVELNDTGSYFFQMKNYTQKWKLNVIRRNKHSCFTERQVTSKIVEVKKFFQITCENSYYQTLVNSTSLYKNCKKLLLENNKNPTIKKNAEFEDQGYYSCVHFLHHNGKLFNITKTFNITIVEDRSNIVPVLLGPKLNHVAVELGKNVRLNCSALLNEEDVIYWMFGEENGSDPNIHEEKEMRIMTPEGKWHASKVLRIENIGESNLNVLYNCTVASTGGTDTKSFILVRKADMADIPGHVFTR
# T2: IL-18RAP ECD-His (human)
# T2 chain: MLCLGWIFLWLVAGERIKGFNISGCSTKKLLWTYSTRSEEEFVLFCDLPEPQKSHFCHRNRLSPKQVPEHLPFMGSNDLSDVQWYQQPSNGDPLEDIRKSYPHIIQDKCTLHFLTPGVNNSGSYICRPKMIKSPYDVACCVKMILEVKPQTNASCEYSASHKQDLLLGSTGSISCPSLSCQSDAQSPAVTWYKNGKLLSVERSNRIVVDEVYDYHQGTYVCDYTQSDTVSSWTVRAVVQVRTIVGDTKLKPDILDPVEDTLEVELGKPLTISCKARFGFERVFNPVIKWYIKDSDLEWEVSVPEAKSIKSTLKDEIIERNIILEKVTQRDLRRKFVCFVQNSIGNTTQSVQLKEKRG
# B1: R1-C7-hFc (antibody, V domains shown)
# VH: QVQLQESGGGPVQAEGSLRLSCTASGNLYRDPCMGWFRQAPGKDREGVAAMNTGADSTFYARSVKGRFTISHDNAKNTLYLQMNSVKPEDTAMYYCAASRYCTERTWTWRYDYDYWGQGTQVTVSS
# B2: hzR1-A12-hFc (antibody, V domains shown)
# VH: EVQLVESGGGLVQPGGSLRLSCAASGTAYDNACMGWFRQAPGKEREGVASIHLRDRTYYADSVKGRFTISRDNSKNTLYLQMNSLRAEDTAVYYCASSNICNALNLQGNTYWGQGTLVTVSS
# B3: hzR1-C7-hFc (antibody, V domains shown)
# VH: EVQLVESGGGLVQPGGSLRLSCAASGNLYRDPCMGWFRQAPGKDREGVAAMNTGADSTFYARSVKGRFTISRDNAKNTLYLQMNSLRAEDTAVYYCAASRYCTERTYTWRYDYDYWGQGTLVTVSS
# B4: hzR1-C10-hFc (antibody, V domains shown)
# VH: EVQLVESGGGLVQPGGSLRLSCAASGSTFDEYDMGWYRQAPGGKCELVSTISTIDASTYYADSVKGRFTISRDNSKNTLYLQMNSLRAEDTAVYYCEADDRGTWDRGGCWGQGTLVTVSS
# B5: hzR1-F9-hFc (antibody, V domains shown)
# VH: EVQLVESGGGLVQPGGSLRLSCAASGFTVHDMGWYRQAPGKECELVSTISSDASTYYADSVKGRFTISRDNAKNTLYLQMNSLRAEDTAVYYCAADSFTGLQLAECKADFGYWGQGTLVTVSS
# B6: R1-F9-hFc (antibody, V domains shown)
# VH: QVQLQESGGGSVQAGETLRLSCTASGFTVHDMGWYRQAPGNECELVSTISSDGSTYYADSVKGRFTISQDNAKNTVYLQMNSLKPEDTAVYYCAADHFTGLQLAECKADFGYWGQGTQVTVSS
# B7: R1-C10-hFc (antibody, V domains shown)
# VH: QVQLQESGGGSVQAGETLRLSCTASGSTFDEYDMGWYRQAPGNKCELVSTISTIDGSTYYADSVKGRFTISQDNTKNTVYLQMNSLKPEDTGVYYCEADDRGTWDRGGCWGQGTQVTVSS
# B8: R1-A12-hFc (antibody, V domains shown)
# VH: QVQLQESGGGPVQAGGSLRLSCSASTTAYDNACMGWFRQAPGKEREGVASIHLRDRTYYADSVKGRFTLSRDGASKTLYLQMNSLKPEDSGTYYCASSNICNGLNLQGNTYWGQGTQVTVSS
# B9: Rap-A10-hFc (designed binder)
# chain: QVQLQESGGGLVQAGGSLKLSCAASGYTYGPYCMGWFRQFPGKEREGVAAVGGDGRTWYGNSVKGRFTISQDNAKKTLYLQINALKPEDTAMYYCAADFDRTVCSDDIYDYTYRGQGTQVTVSS
# B10: Rap-F11-hFc (antibody, V domains shown)
# VH: QVQLQESGGGSVQPGGSLRLSCAASGFTYIPAYMGWFRQAPGKERERVASIKTDGSTTYADSVNGRFTIAQDTAKNTLYLQMDSLKPEDTAMYYCAAYQFGAFRVWGQGTQVTVSS
# B11: Rap-C10-hFc (antibody, V domains shown)
# VH: QVQLQESGGGSVQPGGSLRLSCAASGFTYIPAYMGWFRQAPGKERERVASISSTDGSTTYADSVKGRFTVSQDTAKNTLYLQMNSLKPEDTAMYYCAAYQFGAFRVWGQGTQVTVSS
# B12: hzRap-C10-hFc (antibody, V domains shown)
# VH: B11 VH with Q1E, Q5V, S11L, D55E, V70I, T74N, A75S, K87R, M93V, Q112L
# B13: hzRap-F11-hFc (antibody, V domains shown)
# VH: EVQLVESGGGLVQPGGSLRLSCAASGFTYIPAYMGWFRQAPGKERERVASIKTDASTTYADSVEGRFTISQDNAKNTLYLQMNSLRPEDTAVYYCAAYQFGAFRVWGQGTLVTVSS
# B14: hzRap-A10-hFc (designed binder)
# chain: EVQLLESGGGLVQPGGSLRLSCAASGYTYGPYCMGWFRQAPGKEREGVAAVGGDARTWYGNSVKGRFTISRDNSKNTLYLQMNSLRAEDTAVYYCAADFDRTVCSDDIYDYTYRGQGTLVTVSS
# Target: T1, IL-18R1 ECD-His
# Test: BLI
row,Kd,Binder
1,2.56 nM,B1
2,2 nM,B2
3,2.53 nM,B3
4,1.45 nM,B4
5,3.74 nM,B5
6,1.1 nM,B6
7,0.0281 nM,B7
8,2.82 nM,B8

# Target: T2, IL-18RAP ECD-His
# Test: BLI
row,Kd,Binder
1,0.53 nM,B9
2,4.58 nM,B10
3,1.73 nM,B11
4,6.24 nM,B12
5,4.85 nM,B13
6,0.986 nM,B14
